These results are taken from US7148329 (KATHOLIEKE UNIVERSITEIT NIJMEGEN, dated 2006).

Experiment [1] addresses DC-Specific ICAM-3 Grabbing Non-integrin (DC-SIGN) (human) (UniProt Q9NNX6). The experiment can be described thus: flow cytometry on COS7 cells transfected with DC-SIGN cDNA.
Experiment [2] shares this target. The experiment can be described thus: cell-based or functional assay.
Experiment [3] has the same target. The experiment can be described thus: flow cytometry on DC day 7; meaning of the grade from the table's footnote.
Experiment [4] deals with T1, DC-Specific ICAM-3 Grabbing Non-integrin (DC-SIGN) (human, UniProt Q9NNX6 1-404).
T1 construct: Type II membrane protein of 404 aa, on monocyte-derived DC or on COS7 cells transfected with pRc/CMV-DC-SIGN; in immunoprecipitation and pull-down it came from DC lysate; also called C-type lectin on dendritic cells
T1 sequence: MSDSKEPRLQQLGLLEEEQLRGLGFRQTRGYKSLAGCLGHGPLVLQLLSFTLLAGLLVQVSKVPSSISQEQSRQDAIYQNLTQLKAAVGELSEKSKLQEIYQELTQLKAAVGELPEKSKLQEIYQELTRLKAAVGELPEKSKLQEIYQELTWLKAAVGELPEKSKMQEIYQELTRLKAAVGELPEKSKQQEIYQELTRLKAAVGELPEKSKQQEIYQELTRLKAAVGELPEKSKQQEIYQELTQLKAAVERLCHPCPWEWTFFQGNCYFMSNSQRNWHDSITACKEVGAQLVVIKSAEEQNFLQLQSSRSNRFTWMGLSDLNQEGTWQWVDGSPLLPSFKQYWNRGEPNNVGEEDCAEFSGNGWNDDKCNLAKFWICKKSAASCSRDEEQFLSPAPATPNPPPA
The experiment can be described thus: binding to K562 transfectants (FIG. 8).

AZN-D1 (antibody) returned a percent of transfected cells stained in experiment [1] of 30%. In experiment [2], this molecule gave a DC-T cell clustering (percentage of DC which have bound fluorescent T cells) of 50%; an HIV-1 replication (p24 Gag) in DC-T cell co-culture, DC pre-incubated with antibody before the HIV-1 pulse above 75%; a T-lymphocyte proliferation induced by allogeneic DC ([3H]methyl-thymidine uptake) above 75%. In addition, in experiment [3], the mean fluorescence was above 400.
In experiment [2], AZN-D2 (antibody) had a DC-T cell clustering (percentage of DC which have bound fluorescent T cells) of 50%; an HIV-1 replication (p24 Gag) in DC-T cell co-culture, DC pre-incubated with antibody before the HIV-1 pulse above 75%; a T-lymphocyte proliferation induced by allogeneic DC ([3H]methyl-thymidine uptake) above 75%.

B1: ICAM-2 expressed on K562 cells (ligand, UniProt P13598 25-275, looked up)
chain: KVFEVHVRPKKLAVEPKGSLEVNCSTTCNQPEVGGLETSLDKILLDEQAQWKHYLVSNISHDTVLQCHFTCSGKQESMNSNVSVYQPPRQVILTLQPTLVAVGKSFTIECRVPTVEPLDSLTLFLFRGNETLHYETFGKAAPAPQEATATFNSTADREDGHRNFSCLAVLDLMSRGGNIFHKHSAPKMLEIYEPVSDSQMVIIVTVVSVLLSLFVTSVLLCFIFGQHLRQQRMGTYGVRAAWRRLPQAFRP
notes: whole, on cells
On to B1, for which the binding result in experiment [4] is on record as “binds”.
